Experimental data as given in US20230080534A1, “SEMG2 ANTIBODY AND USE THEREOF” (SHANGHAI BIOTROY BIOTECHNIQUE CO., LTD., priority 2020, published 2023).

T1: binding between SEMG2 and CD27 (Homo sapiens, UniProt Q02383)
T1 sequence (Q02383 24-582): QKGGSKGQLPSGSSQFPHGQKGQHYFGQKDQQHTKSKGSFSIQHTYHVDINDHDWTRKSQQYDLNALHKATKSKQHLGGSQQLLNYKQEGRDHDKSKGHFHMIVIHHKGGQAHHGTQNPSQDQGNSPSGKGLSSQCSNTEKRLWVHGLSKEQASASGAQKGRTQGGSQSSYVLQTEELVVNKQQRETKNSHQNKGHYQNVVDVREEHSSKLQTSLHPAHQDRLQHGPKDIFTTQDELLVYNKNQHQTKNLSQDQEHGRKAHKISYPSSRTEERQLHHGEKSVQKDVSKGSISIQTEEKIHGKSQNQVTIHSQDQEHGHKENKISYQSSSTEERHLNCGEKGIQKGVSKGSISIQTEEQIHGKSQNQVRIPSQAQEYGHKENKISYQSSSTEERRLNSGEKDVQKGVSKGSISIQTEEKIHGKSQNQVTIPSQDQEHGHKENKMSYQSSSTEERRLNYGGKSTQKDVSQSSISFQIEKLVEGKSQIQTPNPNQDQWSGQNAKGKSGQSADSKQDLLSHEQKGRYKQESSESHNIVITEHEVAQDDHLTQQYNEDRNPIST


What was measured:
[1] = test system: LOVO human colorectal cancer cells; experiment: Tumor cell killing by activated PBMC, caspase-3/7 apoptosis; type: cell-based; settings: SEMG2-positive, co-culture with activated PBMC 10:1
Procedure: (§1) To test the above hypothesis, the effects of different epitope-specific antibodies on tumor cell killing by activated PBMC were compared. Specifically, A375 human melanoma and LOVO human colorectal cancer cells highly expressing SEMG2 were seeded in 96-well plate. Human peripheral blood mononuclear cells (PBMC; #70025, Stem Cell) were activated with 100 ng/mL of CD3 antibody, 100 ng/mL, of CD28 antibody, and 1.0 ng/mL of IL2 (#317303; #302913; #589102, BioLegend), respectively, and co-cultured with the above tumor cells at a ratio of 10:1 in presence of fluorescent caspase-3/7 substrate (#4440, Essen Bioscience). After 1.0 hours, cells were observed under fluorescence microscope.
(§2) To verify the above hypothesis, tumor cells with high SEMG2 expression (A375, LOVO) and SEMG2-negative tumor cells (DLD1, NCM460 and NCI-H1975) were selected. Different antibodies (irrelevant mouse IgG antibodies, MM02 or MM05 antibodies) were added during the PBMC killing experiments for the tumor cells.
(§3) To verify the effect of the human antibodies on the function of activated PBMC on tumor cell killing, A375 and LOVO cells were co-cultured with activated PBMC, and H88-93, H88-96, or H88-67 antibody was added at the same time, and the apoptosis ratio of tumor cells were detected.

[2] = test system: A375 human melanoma cells; experiment: as above; type: cell-based; settings: A375, SEMG2-positive, co-culture with activated PBMC 10:1
Procedure: as §1, §2, §3

[3] = biological target: T1, binding between SEMG2 and CD27; experiment: Antibody blocking ELISA of SEMG2 binding to CD27-Fc; settings: for effect on the binding between SEMG2 and CD27: antibody 10 μg/mL; for blocking of binding between SEMG2 and CD27 with increasing antibody concentration: wide range of concentration
Excerpt: Because SEMG2 (497-509) sequence fragment is the key epitope of SEMG2 binding to CD27, and has a relatively short sequence, so SEMG2 (497-509) was used as an immunogen to prepare antibodies, which is theoretically easier to obtain functional antibody molecules with the function of blocking the binding between SEMG2 and CD27 than using full-length SEMG2 to prepare antibodies. For direct comparison, the differences in effective concentration of producing antibody by the two methods were verified using ELISA in the examples. Antibodies produced with SEMG2 (497-509) as immunogen and antibodies produced with full-length SEMG2 were added into the enzyme-linked immunosorbent assay (ELISA) reaction system at different concentrations (10^-2, 10^-1, 10^0, 10^1, 10^2, 10^3, 10^4 μg/mL), and the ELISA binding values were measured. The specific steps of enzyme-linked immunosorbent assay are as follows: (1) Dissolve SEMG2 protein antigen with 50 mM carbonate coating buffer (pH 9.6) to make the antigen concentration 10 μg/mL, and add into 96-well ELISA plate (purchased from Corning) at 100 μL/well, place at 4° C. overnight. (2) After discarding the coating solution on the next day, wash with PBST for three times, add 150 μL of 1% BSA to each well, and block for 2 hours at 37° C. […] (4) After washing for 5 times with PBST, add 100 of diluted HRP-labeled anti-human Fe secondary antibody, and incubate at 37° C. for 1 hour. (5) After washing with PBST for 5 times, 20 min after developing with chromogenic agent, the A450 absorption value was read using the microplate reader.
The SEMG2 (497-509) sequence was used to synthesize a polypeptide and coupled to a VLP carrier for immunization; HEK293 cells were used to express the full-length SEMG2 protein, and the purity was tested to reach 92%, and the binding activity of SEMG2 protein to CD27 was verified by ELISA. The protein and polypeptide antigens were used to immunize 10 mice respectively, and multiple immunizations were performed to enhance the effect: (1) The first immunization, 50 μg/mice of antigen, multiple subcutaneous injections together with Freund's complete adjuvant, with an interval of 3 weeks; (2) the second immunization; the same dosage and route as above, with incomplete Freund's adjuvant, and with an interval of 3 weeks; (3) the third immunization, the same dosage as above, without adjuvant, intraperitoneal injection with an interval of 3 weeks; (4) the booster immunization, the dose is 50 μg, intraperitoneal injection. 3 days after the last injection, blood was collected to measure its titer and the immune effect, and mice with higher titers were selected for hybridoma fusion screening. After subcloning, the binding of the monoclonal antibodies to the target antigens was detected by ELISA, and the function of different monoclonal antibodies in blocking the binding between SEMG2 and CD27 was measured by ELISA.
First, SEMG2(497-509) epitope-specific antibodies (for example, MM02, MM05) were compared with other epitope-specific antibodies (for example, HPA042767) for their function in blocking binding between SEMG2 and CD27 at different concentration ranges. […] The blocking function of different antibodies (irrelative mouse IgG, MM02, MM05, HPA042767) on binding between SEMG2 and CD27 was analyzed by the ELISA experiment as described in Example 11.
Further, the effects of different antibodies on the binding between SEMG2 and CD27 were compared under the condition of the same antibody concentration. In the ELISA, the same concentration (10 μg/mL) of antibody was used, and the strength of the binding between SEMG2 and CD27 was measured. […]

Row | Molecule | apoptosis tumor cell ratio / killing by activated PBMC [1] | apoptosis tumor cell ratio / killing by activated PBMC [2] | effect on the binding between SEMG2 and CD27 [3] | blocking of binding between SEMG2 and CD27 with increasing antibody concentration [3]
1 | MM02: mouse monoclonal antibody against SEMG2(497-509), mIgG2b kappa, VH SEQ ID NO:35, VL SEQ ID NO:42 (antibody, V domains shown, UNSURE (1)..(115) VH; UNSURE (1)..(109) VL) VH: QIQLVQSGPEVKKPGETVRISCKASGYTLTTAGIQWVQKMPGKGLKWIGWINTHSGVPEYAEDFKGRFAFFLETSASTAYLQISNLKNEDTATYFCARLGLLGYWGQGTTLTVSS VL: DILLTQSPAILSVSPGERVSFSCRASQSIGTTIHWYQQRTNGSPRLLIKYASESISGIPSRFSGSGSGTDFTLSINSVESEDIADYYCQQSNSWPWTFGGGTKLEIKRA | significantly increased the killing | significantly increased the killing | significantly reduced the binding | gradually decreased
2 | MM05: mouse monoclonal antibody against SEMG2(497-509), mIgG1 kappa, VH SEQ ID NO:36, VL SEQ ID NO:43 (antibody, V domains shown, UNSURE (1)..(120) VH; UNSURE (1)..(115) VL) VH: QVQLQQPGAELVRPGASVKLSCEASGYTFTSYWMNWVKQRPGQGLEWIGMIDPSDSETHYNQMFKDKATLTVDKSSSTAYMQLSSLTSEDSAVYYCARYLGGKEGSFDYWGQGTTLTVSS VL: DIVMSQSPSSLAVSAGEKVTMSCKSSQSLLNSRTRKNYLAWYQQKPGQSPKLLIYWASTRESGVPDRFTGSGSGTDFTLTISSVQAEDLAVYYCKQSYSLPWTFGGGTKLEIKRA | significantly increased the killing | significantly increased the killing | significantly reduced the binding | gradually decreased
